Substitutions are numbered along the chain they refer to. Names may count otherwise.
B1: CtLac (Caldalkalibacillus thermarum TA2.A1) (protein)
chain: MKRILTLVLLLTVFIIVLVGCSTSPVDHSKMVHGEDDSTDNKQQEETQQIETSEGKVVINLEAKVTHWMFNNDLMEDIWTYNGSLPGQEIRVQEGDHVVINLTNSLDVPTSLHLHGVPVPNEMDGVPGVTQNAIMPGETFTYEFVADTPGTYWYHSHQDGANQIGMGLYGALVVEHKDQPDYDLDQVIMIDEWSSMGMADMDHSGMDHGDHGNMGDNSDQPPHAEMMNMMYDTLIVNGKASPVIEAIGVSEDDTIKLRFVNTGLFTQVITIPGHEFKVTHYDGQQVNEPELISDTAIRIAPAERYDVEIEMNQPGAWGIQIYAEENENLRGIVPLVYAGFEDEELQTADSIQSFLDISAYGSPMNVNFGEITKEFDMILGSDDGGETFTINGKQMTTKGFESHEDHEIYEVEEGDVVKVNIVNDTDVDHPMHLHGHFFYVVSRNGQPVKGSPILKETLNVRPNEAYEIVFVADNPGHWMFHCHELHHASGGMVSEVRYSGYTPAFTPDPNIPNKPE
notes: 516 aa, full-length gene incl; N-terminal region in pET28a(+) (NdeI/XhoI), His-tagged, E. coli BL21(DE3), HisTrap purified; primers encode N-terminus MKRILTLVL and C-terminus IPNKPE
B2: CtLac (Caldalkalibacillus thermarum TA2.A1; V243D) (protein)
chain: B1 chain with V243D
notes: as for B1
B3: CtLac (Caldalkalibacillus thermarum TA2.A1; V243M) (protein)
chain: B1 chain with V243M
notes: as for B1

substrate: COc1cccc(OC)c1O; experiment: purified protein; assay type: biochemical, Caldalkalibacillus thermarum; conditions: 25 °C, pH 8.0, citrate phosphate buffer 50 mM, 1 mM CuCl2, air O2

Row | Protein | Km | kcat | kcat/Km
1 | B1 | 157.2 µM | 1.1 s⁻¹ | 7000 M⁻¹ s⁻¹
2 | B2 | 137.2 µM | 2.7 s⁻¹ | 20000 M⁻¹ s⁻¹
3 | B3 | 674.2 µM | 0.1 s⁻¹ | 100 M⁻¹ s⁻¹
